This data set has as its target lysozyme (chicken (egg white), UniProt P00698 19-147). Kind of data set: electrochemical impedance spectroscopy (Rct decrease); 0-20 ug/mL lysozyme, 15 min; sensor LOD 90 ng/mL (not a Kd); EIS: proteins in 50 mM phosphate buffer (PBS) pH 7.4, 15 min incubation, rinse with PBS and DI water, then ferro-/ferricyanide read-out; SWV: 10 mM PBS; temperature not stated. To be noted: protein: commercial.

Chain of lysozyme (P00698 19-147): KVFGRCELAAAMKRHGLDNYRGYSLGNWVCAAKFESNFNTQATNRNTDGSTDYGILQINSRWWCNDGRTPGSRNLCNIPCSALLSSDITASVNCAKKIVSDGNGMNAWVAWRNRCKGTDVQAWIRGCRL

In the case of ATCAGGGCTAAAGAGTGCAGAGTTACTTAG (ssDNA) [anti-lysozyme aptamer (30-mer)], the binding result is “binds”.
